Numbering of substitutions follows the chain as printed. In names and notes the source's numbering stands.

The results in this text go back to paper PMC10588558, “On the regulation of human D‐aspartate oxidase” (Protein Science : A Publication of the Protein Society, 2023).

Test [1] deals with T1, hDASPO (hDASPO_341), human D-aspartate oxidase (Homo sapiens, UniProt Q99489).
T1 construct: gene DDO; full-length canonical isoform, 341 residues; His-tagged (pET11-His-hDASPO), E. coli BL21(DE3) LOBSTR, HiTrap chelating
T1 sequence (Q99489 1-341): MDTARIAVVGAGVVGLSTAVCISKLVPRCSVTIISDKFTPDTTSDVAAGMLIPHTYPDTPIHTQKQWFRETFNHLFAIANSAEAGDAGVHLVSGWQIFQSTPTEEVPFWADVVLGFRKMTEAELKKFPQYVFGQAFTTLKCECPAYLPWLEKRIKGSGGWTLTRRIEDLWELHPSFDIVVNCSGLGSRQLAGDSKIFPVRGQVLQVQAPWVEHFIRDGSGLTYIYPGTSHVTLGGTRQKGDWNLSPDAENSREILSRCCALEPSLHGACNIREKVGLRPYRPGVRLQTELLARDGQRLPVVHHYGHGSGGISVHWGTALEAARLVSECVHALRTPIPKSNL
In words: quenching of apoprotein tryptophan fluorescence (~[…] nm), titration. It is filed as binding.

Test [2] concerns the target T2, hDASPO-RED (recombinant hDASPO labelled with the RED-NHS dye) (human, UniProt Q99489 1-341, RED-NHS fluorescent dye on primary amines (lysine residues), degree of labeling ~0.7).
T2 construct: human D-aspartate oxidase, canonical isoform 1 (hDASPO_341, 341 amino acids), UniProt Q99489; encoded by the pET11-His-hDASPO plasmid; Same protein as m1, with the dye; also called labeled hDASPO; source: E. coli BL21(DE3) LOBSTR, purified (HiTrap chelating column), labelled with the RED-NHS labeling kit second generation
T2 sequence (looked up): T1 sequence (Q99489 1-341)
The test can be described thus: MST; Monolith NT.115; 10 nM hDASPO-RED with 3 nM to 100 μM label-free pLG72 variant. Particulars: both partners purified.

Turning to `Cc1cc2nc3c(=O)[nH]c(=O)nc-3n(C[C@H](O)[C@H](O)[C@H](O)COP(=O)(O)OP(=O)(O)OC[C@H]3O[C@@H](n4cnc5c(N)ncnc54)[C@H](O)[C@@H]3O)c2cc1C` [FAD], in test [1], the Kd amounted to 0.016 µM.

B1: pLG72 R30 variant (wild type), recombinant (natural protein, UniProt P59103 1-153, looked up)
chain: MLEKLMGADSLQLFRSRYTLGKIYFIGFQRSILLSKSENSLNSIAKETEEGRETVTRKEGWKRRHEDGYLEMAQRHLQRSLCPWVSYLPQPYAELEEVSSHVGKVFMARNYEFLAYEASKDRRQPLERMWTCNYNQQKDQSCNHKEITSTKAE
notes: primate-specific protein pLG72 (18 kDa), wild type with Arg at position 30; kept in 0.06% N-lauroyl sarcosine; also called R30 pLG72; wild-type (R30) pLG72; source: E. coli BL21-Codon plus (DE3)-RIL, recovered from insoluble inclusion bodies, purified
For the molecule B1, the Kd in test [2] was 6.8 ± 0.6 µM.

B2: pLG72 R30K variant (Arg30Lys), recombinant (natural protein, UniProt P59103 1-153, looked up)
chain: B1 chain with R30K
notes: primate-specific protein pLG72 (18 kDa), Arg30Lys variant related to schizophrenia susceptibility; kept in 0.06% N-lauroyl sarcosine; also called R30K pLG72; source: E. coli BL21-Codon plus (DE3)-RIL, recovered from insoluble inclusion bodies, purified
On to B2, for which, in test [2], the Kd was 3.8 ± 0.4 µM.

What is called Kd is the equilibrium constant for the complex coming apart.
